This is an account of results in paper PMC2900198.

Assay [1] addresses Grass carp reovirus (GCRV) coat protein VP5 (grass carp reovirus (GCRV)). Briefly: cryo-EM structure.
Assay [2] addresses Grass carp reovirus (GCRV) turret protein VP1 (grass carp reovirus (GCRV)). As to the kind of experiment: cryo-EM structure.

For orientation: stoichiometry N means the number of molecules, sites or subunits per partner or assembly.

In assay [1], “Grass carp reovirus (GCRV) coat protein VP5 (natural protein)” displayed a stoichiometry N of 3.

In assay [2], “Grass carp reovirus (GCRV) turret protein VP1 (natural protein)” returned a stoichiometry N of 5.
